Paper PMC9101030, “Myo5b Transports Fibronectin-Containing Vesicles and Facilitates FN1 Secretion from Human Pleural Mesothelial Cells” (International Journal of Molecular Sciences, 2022)

Biological target: T1, Flag-Rab11b (full length) (human, UniProt Q15907 1-218)
T1 construct: human Rab11b, full length cDNA in a modified pFastbac HT; the nucleotide state is told by the assay; also called Rab11b-GTPγS; Rab11b-GDPβS; source: Sf9, baculovirus, purified (Ni-NTA); not shown: FLAG, N-terminal, kept
T1 sequence (looked up): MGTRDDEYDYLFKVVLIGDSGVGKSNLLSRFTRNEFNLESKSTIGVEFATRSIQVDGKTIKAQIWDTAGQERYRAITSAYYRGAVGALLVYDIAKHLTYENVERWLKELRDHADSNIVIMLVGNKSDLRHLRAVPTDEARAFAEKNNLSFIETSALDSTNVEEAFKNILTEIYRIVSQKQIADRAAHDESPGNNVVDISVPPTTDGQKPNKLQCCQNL
Experiment: pull-down; GST fusion on Glutathione Sepharose 4B; Flag-Rab11b pre-treated with 5-fold excess GTPγS (30 min, 37 °C); 10 µM Rab11b, 2.5 µM Myo5b Tail, 20 µM GTPγS, 20 mM Tris-HCl pH 7.5, 150 mM NaCl, 1 mM MgCl2, 1 mM EGTA, 1 mM DTT, 0.05% Tween, 1% BSA, 4 °C, 1 h; anti-flag Western blot
Details: both partners purified

binding result: binds
B1: GST-Rab11FIP3 Rab binding domain (694-756 a.a.) (domain or fragment, human, UniProt O75154 694-756, looked up)
chain: QGAKSLFSTAFSESLAAEISSVSRDELMEAIQKQEEINFRLQDYIDRIIVAIMETNPSILEVK
notes: Cloned in pET-30a with GST at the N-terminus and 6xHis at the C-terminus; also called GST-FIP3 RBD; GST-FIP3-RBD; source: E. coli BL21 (DE3), purified (Ni-NTA); not shown: GST, N-terminal, kept
